Reference: US20030054360

Columns and labels:
[1] = biological target: T1, Interleukin-4 (UniProt P05112); settings: 5-BrdU replaces T; photocrosslinking rate at 25 nM target; KD printed as ??
T1 sequence: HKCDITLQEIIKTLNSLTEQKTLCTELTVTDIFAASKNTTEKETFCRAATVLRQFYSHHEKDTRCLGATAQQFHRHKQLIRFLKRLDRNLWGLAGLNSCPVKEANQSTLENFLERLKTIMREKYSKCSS

[2] = biological target: T2, UGT 1A10 (UniProt Q9HAW8); test: filter; settings: 5-BrdU replaces T; apparent photocrosslink KD; plateau 72%
T2 sequence: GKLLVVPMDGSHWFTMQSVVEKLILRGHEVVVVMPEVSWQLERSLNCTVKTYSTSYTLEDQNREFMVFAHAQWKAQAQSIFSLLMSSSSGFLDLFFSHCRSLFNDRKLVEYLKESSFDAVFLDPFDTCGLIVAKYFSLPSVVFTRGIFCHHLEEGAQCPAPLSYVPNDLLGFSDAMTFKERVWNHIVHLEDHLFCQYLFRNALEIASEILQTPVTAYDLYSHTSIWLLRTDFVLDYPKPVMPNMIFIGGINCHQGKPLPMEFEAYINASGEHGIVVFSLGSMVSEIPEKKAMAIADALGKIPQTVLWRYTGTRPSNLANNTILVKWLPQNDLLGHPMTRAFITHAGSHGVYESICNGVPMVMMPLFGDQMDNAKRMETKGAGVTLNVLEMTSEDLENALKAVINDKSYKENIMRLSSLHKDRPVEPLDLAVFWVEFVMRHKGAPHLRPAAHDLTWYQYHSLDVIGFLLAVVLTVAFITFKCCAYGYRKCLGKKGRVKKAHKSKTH

[3] = biological target: T3, UGT 1A3 (UniProt P35503); test: filter; settings: 5-BrdU replaces T; apparent photocrosslink KD; plateau 70%
T3 sequence: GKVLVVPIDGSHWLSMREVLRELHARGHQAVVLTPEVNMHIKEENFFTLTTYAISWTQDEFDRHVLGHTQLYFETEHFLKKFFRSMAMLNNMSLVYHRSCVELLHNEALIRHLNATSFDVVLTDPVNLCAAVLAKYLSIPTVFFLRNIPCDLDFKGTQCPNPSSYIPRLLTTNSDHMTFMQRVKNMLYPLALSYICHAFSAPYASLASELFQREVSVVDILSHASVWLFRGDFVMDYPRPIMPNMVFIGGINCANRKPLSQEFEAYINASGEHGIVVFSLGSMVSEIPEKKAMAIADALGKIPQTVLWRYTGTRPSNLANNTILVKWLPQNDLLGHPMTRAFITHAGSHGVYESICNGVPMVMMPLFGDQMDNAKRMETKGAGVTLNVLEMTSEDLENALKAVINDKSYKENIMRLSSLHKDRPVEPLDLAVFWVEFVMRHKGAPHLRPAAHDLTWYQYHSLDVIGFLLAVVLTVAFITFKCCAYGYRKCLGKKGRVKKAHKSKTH

## ATATATATGGGAGGACGATGCGGGCACAGGTTCTATCAACGTTGTCCTGAGTAATTGACCTGCAGACGACGAGCGGGAAAAAAAA [IL-4 pool 012 clone 63]
[1]
  photocrosslinking rate: 0.71 J-1 cm2

## ATATATATGGGAGGACGATGCGGCACCACTTCTTTACCTCACTCTTTCTGCAGCAGACGACGAGCGGGAAAAAAAA [UGT 1A10 pool 140 clone 45]
[2]
  Kd: 2.1 nM

## ATATATATGGGAGGACGATGCGGGCCGACTTTGTCACCGAGTGCATCCGAGGTCAGACGACGAGCGGGAAAAAAAA [UGT 1A3 pool 141 clone 53]
[3]
  Kd: 3.9 nM
